Assay [1] addresses T1, glycosylated CEA (human, UniProt P06731 35-685, glycosylated (sites and glycans not stated)).
T1 construct: whole, on cells; also called glycosylated CEA antigen; MG7
T1 sequence (looked up): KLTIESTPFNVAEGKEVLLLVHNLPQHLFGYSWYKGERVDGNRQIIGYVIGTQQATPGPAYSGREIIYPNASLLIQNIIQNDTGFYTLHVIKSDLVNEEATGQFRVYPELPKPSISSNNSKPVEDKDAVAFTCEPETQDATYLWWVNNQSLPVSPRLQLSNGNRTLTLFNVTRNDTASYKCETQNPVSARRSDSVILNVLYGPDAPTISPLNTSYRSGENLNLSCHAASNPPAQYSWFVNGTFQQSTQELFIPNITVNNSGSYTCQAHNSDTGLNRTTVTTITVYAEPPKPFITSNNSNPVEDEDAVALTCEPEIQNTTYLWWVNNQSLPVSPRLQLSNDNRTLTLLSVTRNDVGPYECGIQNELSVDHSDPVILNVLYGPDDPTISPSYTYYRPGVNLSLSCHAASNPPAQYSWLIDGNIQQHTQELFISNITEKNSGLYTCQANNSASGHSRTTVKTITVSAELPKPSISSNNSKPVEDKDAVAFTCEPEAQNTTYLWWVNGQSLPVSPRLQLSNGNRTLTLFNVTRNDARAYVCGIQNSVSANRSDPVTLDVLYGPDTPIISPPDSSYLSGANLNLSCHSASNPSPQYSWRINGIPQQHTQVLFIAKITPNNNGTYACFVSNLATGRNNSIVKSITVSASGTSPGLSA
The assay can be described thus: flow cytometry on CRYPT cells, goat anti-mouse IgG-APC, logistic fit of MFI. Here is the method: (§1) The antibodies FM2, FM4, FM5, and FM6 were diluted with PBS buffer containing 1% BSA, and incubated with SW620-CEA or CRYPT cells (final concentrations: 50 μg/ml, 5 μg/ml, 0.5 μg/ml, 0.05 μg/ml, 0.005 μg/ml, 0.0005 μg/ml) for 1 hour at room temperature; the cells were washed twice with PBS buffer containing 1% BSA, and then incubated with Goat Anti Mouse IgG-APC for 1 hour; the cells were washed twice with PBS buffer containing 1% BSA and resuspended in PBS buffer; the APC fluorescence values of the cells were read using BD Accuri C6 FACS.
(§2) Using the median fluorescence value (MFI) as the ordinate and the antibody concentration (μg/ml) as the abscissa, the S-curve was fitted using a logistic equation to calculate the antibody binding EC50, the results are shown in the following table: […]

Assay [2] concerns the target T2, CEA overexpressed on SW620-CEA cells (CEACAM5, non-glycosylated state) (UniProt P06731 35-685).
T2 construct: whole, on cells; also called CEACAMS; CEA antigens with a lower degree of glycosylation
T2 sequence (looked up): T1 sequence (looked up)
The assay can be described thus: flow cytometry on SW620-CEA cells, goat anti-mouse IgG-APC, logistic fit of MFI. Here is the method: as §1, §2
A general note: In flow cytometry, cells or beads pass a laser one at a time.

The target in assay [3] is T1, glycosylated CEA. Kind of assay: ratio of EC50 values from flow cytometry on cells.

B1: FM5 (scFv, V domains shown)
VH: QVQLKESGPGLVAPSQNLSITCTVSGFSLTSYAINWVRQPPGKGLEWLGIIWTGGGTNYNSALKSRLSISKDNSKSQVFLKMNSLQTDDTARYYCASGVYYFDYWGLGTTLTVSS
VL: DIVMTQSHKFMSTSVGDRVSITCKASQDVTTAVAWYQQKPGQSPKVLIFWASTRHTGVPDRFTGSGSGTDYTLTISSVQAEDLALYYCQQYYRTPRTFGGGTKLEIK
notes: also called antibody FM5; FM5 single-chain antibody
On to B1, for which the figures for the EC50 (with glycosylated CEA [1]; in assay [2]) were 0.04 µg/mL and 0.2 µg/mL, respectively.

B2: FM4 (scFv, V domains shown)
VH: EVKLVESGGGLVQPGGSLRLSCSISGFTFTDYYMNWVRQSPGKALEWLGFIRNKVNGDTTEYSASVKGRFTISRDISQSILYLQMNTLRTEDSATYYCARDKGIAYYFDYWGQGTTLTVSS
VL: QIVLSQSPAILFASPGEKVTMTCRASSSVSYIHWYQQKPGSSPKPWIHGTSNLASGVPARFSGSGSGTSYSLTISRMEAEDAATYYCQQWSSNLSTFGGGTKLEIK
notes: also called antibody FM4; FM4 single-chain antibody
In the assay with glycosylated CEA [1], B2 displayed an EC50 of 0.51 µg/mL. For the same molecule, the “selectivity (glycosylated CEA on CRYPT against non-glycosylated CEA on SW620-CEA)” value with glycosylated CEA [3] was over 100 fold.

B3: FM2 (scFv, V domains shown)
VH: DVKLVESGGGLVKPGGSLKLSCAASGFTFSRYTMSWVRQTPEKRLEWVATISNSGSYTYYRDSVKGRFTISRDNAKNTLYLQMSSLKSEDTAMYYCTRGSPWGQGTLVTVSA
VL: DIQMTQSPDSLSASVGETVTITCGASENIYGALNWYQRKQGKSPQLLIYGATKLADGMSSRFSGSGSNRQYSLKISSLHPDDVATYYCQNVLSKPYAFGGGTKLEIK
notes: also called antibody FM2; FM2 single-chain antibody
Consider B3, for which the 50% effective concentration (EC50) with glycosylated CEA [1] came to 0.02 µg/mL; in assay [2], 0.8 µg/mL.

What is called EC50 is the midpoint of the concentration-response curve. Low values mean greater potency, high ones weaker potency.

The values above are taken from patent US20190167721A1 (FOURTH MILITARY MEDICAL UNIVERSITY XI AN, published 2019).
